Test results reported in patent US20170355769A1 (AbbVie / Abbott, published 2017).

B1: huAb3v2.6-LB (antibody, human IgG1, kappa, L234A L235A, V domains shown)
VH: EVQLVQSGAEVKKPGSSVKVSCKASGYTFSSYWMHWVRQAPGQGLEWIGLIHPESGSTNYNEMFKNRATLTVDRSTSTAYMELSSLRSEDTAVYYCAGGGRLYFDYWGQGTTVTVSS
VL: DIVMTQSPLSLPVTPGEPASISCRSSQSLVHSNQDTYLRWYLQKPGQSPQLLIYKVSNRFSGVPDRFSGSGSGTDFTLKISRVEAEDVGVYYCSQSTHVPYTFGGGTKVEIKR
modifications: synthon LB on reduced interchain Cys
B2: huAb3v2.6-SR (antibody, human IgG1, kappa, L234A L235A, V domains shown)
VH: EVQLVQSGAEVKKPGSSVKVSCKASGYTFSSYWMHWVRQAPGQGLEWIGLIHPESGSTNYNEMFKNRATLTVDRSTSTAYMELSSLRSEDTAVYYCAGGGRLYFDYWGQGTTVTVSS
VL: DIVMTQSPLSLPVTPGEPASISCRSSQSLVHSNQDTYLRWYLQKPGQSPQLLIYKVSNRFSGVPDRFSGSGSGTDFTLKISRVEAEDVGVYYCSQSTHVPYTFGGGTKVEIKR
modifications: synthon SR on reduced interchain Cys
B3: huAb3v2.6-XW (antibody, human IgG1, kappa, L234A L235A, V domains shown)
VH: EVQLVQSGAEVKKPGSSVKVSCKASGYTFSSYWMHWVRQAPGQGLEWIGLIHPESGSTNYNEMFKNRATLTVDRSTSTAYMELSSLRSEDTAVYYCAGGGRLYFDYWGQGTTVTVSS
VL: DIVMTQSPLSLPVTPGEPASISCRSSQSLVHSNQDTYLRWYLQKPGQSPQLLIYKVSNRFSGVPDRFSGSGSGTDFTLKISRVEAEDVGVYYCSQSTHVPYTFGGGTKVEIKR
modifications: synthon XW on reduced interchain Cys
B4: huAb3v2.6-ZT (antibody, human IgG1, kappa, L234A L235A, V domains shown)
VH: EVQLVQSGAEVKKPGSSVKVSCKASGYTFSSYWMHWVRQAPGQGLEWIGLIHPESGSTNYNEMFKNRATLTVDRSTSTAYMELSSLRSEDTAVYYCAGGGRLYFDYWGQGTTVTVSS
VL: DIVMTQSPLSLPVTPGEPASISCRSSQSLVHSNQDTYLRWYLQKPGQSPQLLIYKVSNRFSGVPDRFSGSGSGTDFTLKISRVEAEDVGVYYCSQSTHVPYTFGGGTKVEIKR
modifications: synthon ZT on reduced interchain Cys
B5: huAb3v2.6-SE (antibody, human IgG1, kappa, L234A L235A, V domains shown)
VH: EVQLVQSGAEVKKPGSSVKVSCKASGYTFSSYWMHWVRQAPGQGLEWIGLIHPESGSTNYNEMFKNRATLTVDRSTSTAYMELSSLRSEDTAVYYCAGGGRLYFDYWGQGTTVTVSS
VL: DIVMTQSPLSLPVTPGEPASISCRSSQSLVHSNQDTYLRWYLQKPGQSPQLLIYKVSNRFSGVPDRFSGSGSGTDFTLKISRVEAEDVGVYYCSQSTHVPYTFGGGTKVEIKR
modifications: synthon SE on reduced interchain Cys
B6: huAb3v2.6-KZ (antibody, human IgG1, kappa, L234A L235A, V domains shown)
VH: EVQLVQSGAEVKKPGSSVKVSCKASGYTFSSYWMHWVRQAPGQGLEWIGLIHPESGSTNYNEMFKNRATLTVDRSTSTAYMELSSLRSEDTAVYYCAGGGRLYFDYWGQGTTVTVSS
VL: DIVMTQSPLSLPVTPGEPASISCRSSQSLVHSNQDTYLRWYLQKPGQSPQLLIYKVSNRFSGVPDRFSGSGSGTDFTLKISRVEAEDVGVYYCSQSTHVPYTFGGGTKVEIKR
modifications: synthon KZ on reduced interchain Cys
B7: huAb3v2.6-YG (antibody, human IgG1, kappa, L234A L235A, V domains shown)
VH: EVQLVQSGAEVKKPGSSVKVSCKASGYTFSSYWMHWVRQAPGQGLEWIGLIHPESGSTNYNEMFKNRATLTVDRSTSTAYMELSSLRSEDTAVYYCAGGGRLYFDYWGQGTTVTVSS
VL: DIVMTQSPLSLPVTPGEPASISCRSSQSLVHSNQDTYLRWYLQKPGQSPQLLIYKVSNRFSGVPDRFSGSGSGTDFTLKISRVEAEDVGVYYCSQSTHVPYTFGGGTKVEIKR
modifications: synthon YG on reduced interchain Cys
B8: huAb3v2.6-ZZ (antibody, human IgG1, kappa, L234A L235A, V domains shown)
VH: EVQLVQSGAEVKKPGSSVKVSCKASGYTFSSYWMHWVRQAPGQGLEWIGLIHPESGSTNYNEMFKNRATLTVDRSTSTAYMELSSLRSEDTAVYYCAGGGRLYFDYWGQGTTVTVSS
VL: DIVMTQSPLSLPVTPGEPASISCRSSQSLVHSNQDTYLRWYLQKPGQSPQLLIYKVSNRFSGVPDRFSGSGSGTDFTLKISRVEAEDVGVYYCSQSTHVPYTFGGGTKVEIKR
modifications: synthon ZZ on reduced interchain Cys
B9: huAb13v1-AAA (antibody, human IgG1, kappa, L234A L235A, V domains shown)
VH: EVQLQESGPGLVKPSETLSLTCAVTGYSITSGYSWHWIRQFPGNGLEWMGYIHSSGSTNYNPSLKSRISISRDTSKNQFFLKLSSVTAADTAVYYCAGYDDYFEYWGQGTTVTVSS
VL: DIQMTQSPSSLSASVGDRVTITCKASQNVGFNVAWYQQKPGKSPKALIYSASYRYSGVPSRFSGSGSGTDFTLTISSLQPEDFAEYFCQQYNWYPFTFGQGTKLEIKR
modifications: synthon AAA on reduced interchain Cys
B10: huAb13v1-WD (antibody, human IgG1, kappa, L234A L235A, V domains shown)
VH: EVQLQESGPGLVKPSETLSLTCAVTGYSITSGYSWHWIRQFPGNGLEWMGYIHSSGSTNYNPSLKSRISISRDTSKNQFFLKLSSVTAADTAVYYCAGYDDYFEYWGQGTTVTVSS
VL: DIQMTQSPSSLSASVGDRVTITCKASQNVGFNVAWYQQKPGKSPKALIYSASYRYSGVPSRFSGSGSGTDFTLTISSLQPEDFAEYFCQQYNWYPFTFGQGTKLEIKR
modifications: synthon WD on reduced interchain Cys
B11: huAb13v1-AAD (antibody, human IgG1, kappa, L234A L235A, V domains shown)
VH: EVQLQESGPGLVKPSETLSLTCAVTGYSITSGYSWHWIRQFPGNGLEWMGYIHSSGSTNYNPSLKSRISISRDTSKNQFFLKLSSVTAADTAVYYCAGYDDYFEYWGQGTTVTVSS
VL: DIQMTQSPSSLSASVGDRVTITCKASQNVGFNVAWYQQKPGKSPKALIYSASYRYSGVPSRFSGSGSGTDFTLTISSLQPEDFAEYFCQQYNWYPFTFGQGTKLEIKR
modifications: synthon AAD on reduced interchain Cys
B12: huAb13v1-LB (antibody, human IgG1, kappa, L234A L235A, V domains shown)
VH: EVQLQESGPGLVKPSETLSLTCAVTGYSITSGYSWHWIRQFPGNGLEWMGYIHSSGSTNYNPSLKSRISISRDTSKNQFFLKLSSVTAADTAVYYCAGYDDYFEYWGQGTTVTVSS
VL: DIQMTQSPSSLSASVGDRVTITCKASQNVGFNVAWYQQKPGKSPKALIYSASYRYSGVPSRFSGSGSGTDFTLTISSLQPEDFAEYFCQQYNWYPFTFGQGTKLEIKR
modifications: synthon LB on reduced interchain Cys
B13: huAb13v1-ZZ (antibody, human IgG1, kappa, L234A L235A, V domains shown)
VH: EVQLQESGPGLVKPSETLSLTCAVTGYSITSGYSWHWIRQFPGNGLEWMGYIHSSGSTNYNPSLKSRISISRDTSKNQFFLKLSSVTAADTAVYYCAGYDDYFEYWGQGTTVTVSS
VL: DIQMTQSPSSLSASVGDRVTITCKASQNVGFNVAWYQQKPGKSPKALIYSASYRYSGVPSRFSGSGSGTDFTLTISSLQPEDFAEYFCQQYNWYPFTFGQGTKLEIKR
modifications: synthon ZZ on reduced interchain Cys
B14: huAb13v1-ZT (antibody, human IgG1, kappa, L234A L235A, V domains shown)
VH: EVQLQESGPGLVKPSETLSLTCAVTGYSITSGYSWHWIRQFPGNGLEWMGYIHSSGSTNYNPSLKSRISISRDTSKNQFFLKLSSVTAADTAVYYCAGYDDYFEYWGQGTTVTVSS
VL: DIQMTQSPSSLSASVGDRVTITCKASQNVGFNVAWYQQKPGKSPKALIYSASYRYSGVPSRFSGSGSGTDFTLTISSLQPEDFAEYFCQQYNWYPFTFGQGTKLEIKR
modifications: synthon ZT on reduced interchain Cys

Target: T1, Human full length B7-H3 (human, UniProt Q5ZPR3 29-534)
T1 sequence: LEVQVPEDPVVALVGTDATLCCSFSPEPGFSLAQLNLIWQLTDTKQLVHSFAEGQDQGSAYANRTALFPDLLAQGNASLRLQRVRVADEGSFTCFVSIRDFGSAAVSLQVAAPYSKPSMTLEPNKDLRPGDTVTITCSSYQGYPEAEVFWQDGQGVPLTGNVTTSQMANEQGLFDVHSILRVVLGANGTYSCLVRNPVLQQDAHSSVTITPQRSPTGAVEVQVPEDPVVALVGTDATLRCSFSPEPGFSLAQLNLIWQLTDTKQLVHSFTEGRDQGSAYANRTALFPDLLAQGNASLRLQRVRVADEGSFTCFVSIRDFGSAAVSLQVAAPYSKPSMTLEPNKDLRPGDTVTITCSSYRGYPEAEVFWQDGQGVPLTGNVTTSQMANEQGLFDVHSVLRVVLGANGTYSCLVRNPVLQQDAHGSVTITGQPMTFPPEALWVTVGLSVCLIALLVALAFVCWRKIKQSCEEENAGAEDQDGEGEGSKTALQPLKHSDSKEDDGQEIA
Experiment: cell-based or functional assay

| Binder | EC50 nM H1650 (tumor cell cytotoxicity) [nM] |
| --- | --- |
| B1 | 2.07 |
| B2 | 0.71 |
| B3 | 2.4 |
| B4 | 1.11 |
| B5 | 1.01 |
| B6 | 5.52 |
| B7 | 0.68 |
| B8 | 1.35 |
| B9 | 0.37 |
| B10 | 0.45 |
| B11 | 0.21 |
| B12 | > 133 |
| B13 | 0.42 |
| B14 | 0.3 |
